Assay results from patent US20070036810A1, “Cyclic amp response element activator proteins and uses related thereto” (priority 2003, published 2007).

Target: GAL4-CREB fusion protein (Stratagene): CREB activation domain fused with the yeast GAL4 DNA binding domain (amino acids 1-147) (yeast) (UniProt P04386)
Assay: cell-based or functional assay

## human CREAP1 (CRE activating protein 1), full length (from UniProt Q6UUV9 1-634)
  Fold Induction (luciferase from the genome-integrated pFR-Luc/UAS-Luc reporter in HLR cells, GAL4-CREB co-transfected with CREAP1, normalized to pCMV-BD vector): 233 fold

## human CREAP3, full length (from UniProt Q6UUV7 1-619)
  Fold Induction (luciferase from the genome-integrated pFR-Luc/UAS-Luc reporter in HLR cells, GAL4-CREB co-transfected with CREAP3, normalized to pCMV-BD vector): 448 fold

## human CREAP2, full length (from UniProt Q53ET0 1-693)
  Fold Induction (luciferase from the genome-integrated pFR-Luc/UAS-Luc reporter in HLR cells, GAL4-CREB co-transfected with CREAP2, normalized to pCMV-BD vector): 178 fold
